Reference: patent US20050282743A1, “Molecular interactions in cells” (Arbor Vita Corporation, priority 2001, published 2005)

T1: GST-DLG1 PDZ domain 2 (Homo sapiens), Q12959
T1 chain: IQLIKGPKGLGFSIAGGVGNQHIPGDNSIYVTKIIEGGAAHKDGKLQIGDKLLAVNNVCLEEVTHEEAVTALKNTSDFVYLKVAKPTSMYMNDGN

T2: GST-DLG2 PDZ domain 2 (Homo sapiens (Human)), Q15700
T2 chain: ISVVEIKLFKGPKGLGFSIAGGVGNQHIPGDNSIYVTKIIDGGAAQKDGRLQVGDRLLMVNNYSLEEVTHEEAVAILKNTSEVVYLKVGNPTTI

T3: GST-EZRIN Binding Protein 50 PDZ domain 1 (Homo sapiens (Human)), O14745
T3 chain: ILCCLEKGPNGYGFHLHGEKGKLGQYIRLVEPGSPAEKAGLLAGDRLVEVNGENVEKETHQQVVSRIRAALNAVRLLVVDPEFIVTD

T4: GST-KIAA0147 PDZ domain 2 (Homo sapiens (Human)), Q14160
T4 chain: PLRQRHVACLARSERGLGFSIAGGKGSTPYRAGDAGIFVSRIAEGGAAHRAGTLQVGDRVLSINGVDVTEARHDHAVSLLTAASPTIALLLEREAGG

T5: GST-KIAA0147 PDZ domain 3 (Homo sapiens (Human)), Q14160
T5 chain: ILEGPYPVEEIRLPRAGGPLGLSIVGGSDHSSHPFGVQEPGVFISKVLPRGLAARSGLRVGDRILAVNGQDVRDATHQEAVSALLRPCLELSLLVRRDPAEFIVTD

T6: GST-KIAA0147 PDZ domain 4 (Homo sapiens (Human)), Q14160
T6 chain: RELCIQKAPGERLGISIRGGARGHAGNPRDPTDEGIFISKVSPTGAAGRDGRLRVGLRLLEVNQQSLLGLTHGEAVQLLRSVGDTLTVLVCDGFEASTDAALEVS

T7: GST-MUPP1 PDZ domain 13 (Homo sapiens (Human)), O75970
T7 chain: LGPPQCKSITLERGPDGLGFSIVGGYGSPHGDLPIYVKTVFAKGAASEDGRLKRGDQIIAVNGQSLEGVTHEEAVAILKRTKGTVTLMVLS

T8: GST-MUPP1 PDZ domain 5 (Homo sapiens (Human)), O75970
T8 chain: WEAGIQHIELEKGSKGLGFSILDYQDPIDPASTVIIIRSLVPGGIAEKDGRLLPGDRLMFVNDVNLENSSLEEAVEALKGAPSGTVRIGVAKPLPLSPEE

T9: GST-NeDLG PDZ domain 3 (Mus musculus (Mouse)), P70175
T9 chain: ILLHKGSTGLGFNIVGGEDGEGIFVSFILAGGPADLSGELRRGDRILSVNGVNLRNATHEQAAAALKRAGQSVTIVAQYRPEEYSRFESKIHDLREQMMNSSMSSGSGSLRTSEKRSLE

T10: GST-Shank 1 PDZ domain 1 (Homo sapiens (Human)), Q9UPX8
T10 chain: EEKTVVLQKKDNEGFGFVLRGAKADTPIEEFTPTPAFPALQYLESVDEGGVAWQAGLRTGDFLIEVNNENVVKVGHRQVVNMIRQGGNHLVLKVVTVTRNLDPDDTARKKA

T11: GST-Syntrophin gamma 2 PDZ domain 1 (Homo sapiens (Human)), Q9NY99
T11 chain: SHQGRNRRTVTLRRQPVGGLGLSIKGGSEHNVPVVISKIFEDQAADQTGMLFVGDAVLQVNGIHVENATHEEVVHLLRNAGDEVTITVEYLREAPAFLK

T12: GST-ZO-1 PDZ domain 1 (Rattus norvegicus (Rat)), A0A0G2
T12 chain: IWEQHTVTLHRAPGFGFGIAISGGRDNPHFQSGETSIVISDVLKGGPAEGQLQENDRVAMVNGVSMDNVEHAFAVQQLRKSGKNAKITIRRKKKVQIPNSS

T13: GST-ZO-2 PDZ domain 1 (Homo sapiens (Human)), Q9UDY2
T13 chain: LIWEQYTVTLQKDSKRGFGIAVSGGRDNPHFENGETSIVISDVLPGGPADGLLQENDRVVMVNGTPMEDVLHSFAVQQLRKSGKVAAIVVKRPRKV

T14: GST-novel PDZ gene PDZ domain 1 (Homo sapiens (Human)), Q9H5P4
T14 chain: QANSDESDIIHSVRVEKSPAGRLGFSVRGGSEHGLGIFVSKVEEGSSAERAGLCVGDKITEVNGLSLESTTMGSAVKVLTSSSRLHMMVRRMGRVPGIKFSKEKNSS


Molecular target: GST-BAI-1 Associated Protein PDZ domain 3 (Homo sapiens (Human)), Q96QZ7
Sequence (Q96QZ7 other isoform, or with tags, fused parts or gaps): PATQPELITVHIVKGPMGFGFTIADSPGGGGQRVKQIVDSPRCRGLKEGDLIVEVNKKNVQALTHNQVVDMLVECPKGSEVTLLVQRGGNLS
Assay: G' assay
Note: key of the grades not given here.

Row | Binder | Classification [A450 class]
1 | PYSELNYETSHYPASPDSWV (modifications not checked) [catenin - delta 2] | 1
2 | VGTLLLERVIFPSVKIATLV (modifications not checked) [AdenoE4 typ9] | 5
3 | QISPGGLEPPSEKHFRETEV (modifications not checked) [TAX] | 1
4 | TQGFPGPATWRRISSLESEV (modifications not checked) [NMDA Glutamate Receptor 2C (cysteine-free)] | 1

Molecular target: GST-BAI-1 Associated Protein PDZ domain 4 (Homo sapiens (Human)), Q96QZ7
Sequence (Q96QZ7 other isoform, or with tags, fused parts or gaps): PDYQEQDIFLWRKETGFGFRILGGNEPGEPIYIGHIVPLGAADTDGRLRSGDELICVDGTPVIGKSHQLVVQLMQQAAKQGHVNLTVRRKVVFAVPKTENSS
Assay: G' assay

Row | Binder | Classification [A450 class]
5 | PIPAGGCTFSGIFPTLTSPL (modifications not checked) [KIA 1481] | 1
6 | VGTLLLERVIFPSVKIATLV (modifications not checked) [AdenoE4 typ9] | 5
7 | QISPGGLEPPSEKHFRETEV (modifications not checked) [TAX] | 2
8 | TQGFPGPATWRRISSLESEV (modifications not checked) [NMDA Glutamate Receptor 2C (cysteine-free)] | 3

Molecular target: T1, GST-DLG1 PDZ domain 2 (Homo sapiens), …
Assay: G' assay

Row | Binder | Classification [A450 class]
9 | PYSELNYETSHYPASPDSWV (modifications not checked) [catenin - delta 2] | 2
10 | VGTLLLERVIFPSVKIATLV (modifications not checked) [AdenoE4 typ9] | 5
11 | QISPGGLEPPSEKHFRETEV (modifications not checked) [TAX] | 5
12 | TQGFPGPATWRRISSLESEV (modifications not checked) [NMDA Glutamate Receptor 2C (cysteine-free)] | 5

Molecular target: T2, GST-DLG2 PDZ domain 2 (Homo sapiens …)
Assay: G' assay

Row | Binder | Classification [A450 class]
13 | PYSELNYETSHYPASPDSWV (modifications not checked) [catenin - delta 2] | 1
14 | VGTLLLERVIFPSVKIATLV (modifications not checked) [AdenoE4 typ9] | 5
15 | QISPGGLEPPSEKHFRETEV (modifications not checked) [TAX] | 5
16 | TQGFPGPATWRRISSLESEV (modifications not checked) [NMDA Glutamate Receptor 2C (cysteine-free)] | 5

Molecular target: T3, GST-EZRIN Binding Protein 50 PDZ domain …
Assay: G' assay

Row | Binder | Classification [A450 class]
17 | PIPAGGCTFSGIFPTLTSPL (modifications not checked) [KIA 1481] | 2

Molecular target: GST-KIAA0147 PDZ domain 1 (Homo sapiens (Human)), Q14160
Sequence (Q14160 other isoform, or with tags, fused parts or gaps): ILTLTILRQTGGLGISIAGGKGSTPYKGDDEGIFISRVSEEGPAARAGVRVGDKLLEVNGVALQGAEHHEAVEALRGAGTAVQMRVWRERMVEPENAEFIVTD
Assay: G' assay

Row | Binder | Classification [A450 class]
18 | PIPAGGCTFSGIFPTLTSPL (modifications not checked) [KIA 1481] | 2
19 | QISPGGLEPPSEKHFRETEV (modifications not checked) [TAX] | 5
20 | TQGFPGPATWRRISSLESEV (modifications not checked) [NMDA Glutamate Receptor 2C (cysteine-free)] | 5

Molecular target: T4, GST-KIAA0147 PDZ domain 2 (Homo sapiens …)
Assay: G' assay

Row | Binder | Classification [A450 class]
21 | PYSELNYETSHYPASPDSWV (modifications not checked) [catenin - delta 2] | 3
22 | QISPGGLEPPSEKHFRETEV (modifications not checked) [TAX] | 5
23 | TQGFPGPATWRRISSLESEV (modifications not checked) [NMDA Glutamate Receptor 2C (cysteine-free)] | 1

Molecular target: T5, GST-KIAA0147 PDZ domain 3 (Homo sapiens …)
Assay: G' assay

Row | Binder | Classification [A450 class]
24 | QISPGGLEPPSEKHFRETEV (modifications not checked) [TAX] | 1
25 | TQGFPGPATWRRISSLESEV (modifications not checked) [NMDA Glutamate Receptor 2C (cysteine-free)] | 1

Molecular target: T6, GST-KIAA0147 PDZ domain 4 (Homo sapiens …)
Assay: G' assay

Row | Binder | Classification [A450 class]
26 | PYSELNYETSHYPASPDSWV (modifications not checked) [catenin - delta 2] | 1
27 | QISPGGLEPPSEKHFRETEV (modifications not checked) [TAX] | 1

Molecular target: GST-KIAA1634 PDZ domain 1 (Homo sapiens (Human)), Q5TCQ9
Sequence (Q5TCQ9 401-502): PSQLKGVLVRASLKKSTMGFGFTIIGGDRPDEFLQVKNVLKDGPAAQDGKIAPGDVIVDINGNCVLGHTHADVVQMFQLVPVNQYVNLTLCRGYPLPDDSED
Assay: G' assay

Row | Binder | Classification [A450 class]
28 | PIPAGGCTFSGIFPTLTSPL (modifications not checked) [KIA 1481] | 2
29 | VGTLLLERVIFPSVKIATLV (modifications not checked) [AdenoE4 typ9] | 5
30 | QISPGGLEPPSEKHFRETEV (modifications not checked) [TAX] | 5
31 | TQGFPGPATWRRISSLESEV (modifications not checked) [NMDA Glutamate Receptor 2C (cysteine-free)] | 5

Molecular target: T7, GST-MUPP1 PDZ domain 13 (Homo sapiens …)
Assay: G' assay

Row | Binder | Classification [A450 class]
32 | QISPGGLEPPSEKHFRETEV (modifications not checked) [TAX] | 5
33 | TQGFPGPATWRRISSLESEV (modifications not checked) [NMDA Glutamate Receptor 2C (cysteine-free)] | 5

Molecular target: T8, GST-MUPP1 PDZ domain 5 (Homo sapiens …)
Assay: G' assay

Row | Binder | Classification [A450 class]
34 | TQGFPGPATWRRISSLESEV (modifications not checked) [NMDA Glutamate Receptor 2C (cysteine-free)] | 1

Molecular target: T9, GST-NeDLG PDZ domain 3 (Mus musculus …)
Assay: G' assay

Row | Binder | Classification [A450 class]
35 | PYSELNYETSHYPASPDSWV (modifications not checked) [catenin - delta 2] | 1
36 | QISPGGLEPPSEKHFRETEV (modifications not checked) [TAX] | 5
37 | TQGFPGPATWRRISSLESEV (modifications not checked) [NMDA Glutamate Receptor 2C (cysteine-free)] | 1

Molecular target: GST-PSD95 PDZ domain 1 (Homo sapiens)
Assay: G' assay

Row | Binder | Classification [A450 class]
38 | PYSELNYETSHYPASPDSWV (modifications not checked) [catenin - delta 2] | 1
39 | VGTLLLERVIFPSVKIATLV (modifications not checked) [AdenoE4 typ9] | 4
40 | QISPGGLEPPSEKHFRETEV (modifications not checked) [TAX] | 5
41 | TQGFPGPATWRRISSLESEV (modifications not checked) [NMDA Glutamate Receptor 2C (cysteine-free)] | 5

Molecular target: GST-PSD95 PDZ domains 1, 2, 3 (Homo sapiens), P78352
Sequence (P78352 62-395): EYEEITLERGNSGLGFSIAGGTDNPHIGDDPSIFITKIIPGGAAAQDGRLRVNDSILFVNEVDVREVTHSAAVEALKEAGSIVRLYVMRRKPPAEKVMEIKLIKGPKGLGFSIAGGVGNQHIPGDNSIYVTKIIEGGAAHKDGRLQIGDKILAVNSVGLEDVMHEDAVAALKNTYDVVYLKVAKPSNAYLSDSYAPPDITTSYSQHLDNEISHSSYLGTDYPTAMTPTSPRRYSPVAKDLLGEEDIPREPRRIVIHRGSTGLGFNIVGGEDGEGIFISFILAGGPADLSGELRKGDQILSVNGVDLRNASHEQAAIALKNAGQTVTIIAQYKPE
Assay: G' assay

Row | Binder | Classification [A450 class]
42 | PYSELNYETSHYPASPDSWV (modifications not checked) [catenin - delta 2] | 2
43 | VGTLLLERVIFPSVKIATLV (modifications not checked) [AdenoE4 typ9] | 5
44 | QISPGGLEPPSEKHFRETEV (modifications not checked) [TAX] | 5
45 | TQGFPGPATWRRISSLESEV (modifications not checked) [NMDA Glutamate Receptor 2C (cysteine-free)] | 5

Molecular target: T10, GST-Shank 1 PDZ domain 1 (Homo sapiens …)
Assay: G' assay

Row | Binder | Classification [A450 class]
46 | PIPAGGCTFSGIFPTLTSPL (modifications not checked) [KIA 1481] | 5

Molecular target: T11, GST-Syntrophin gamma 2 PDZ domain 1 …
Assay: G' assay

Row | Binder | Classification [A450 class]
47 | QISPGGLEPPSEKHFRETEV (modifications not checked) [TAX] | 1
48 | TQGFPGPATWRRISSLESEV (modifications not checked) [NMDA Glutamate Receptor 2C (cysteine-free)] | 2

Molecular target: T12, GST-ZO-1 PDZ domain 1 (Rattus …)
Assay: G' assay

Row | Binder | Classification [A450 class]
49 | VGTLLLERVIFPSVKIATLV (modifications not checked) [AdenoE4 typ9] | 2

Molecular target: T13, GST-ZO-2 PDZ domain 1 (Homo sapiens …)
Assay: G' assay

Row | Binder | Classification [A450 class]
50 | VGTLLLERVIFPSVKIATLV (modifications not checked) [AdenoE4 typ9] | 3

Molecular target: T14, GST-novel PDZ gene PDZ domain 1 (Homo …)
Assay: G' assay

Row | Binder | Classification [A450 class]
51 | PIPAGGCTFSGIFPTLTSPL (modifications not checked) [KIA 1481] | 1
